One substance from PMC4411560 can be followed below.

Assay [1] concerns the target 30S IC_(−1/3,Met): pseudo 30S initiation complex lacking IF1 and IF3 carrying Met-tRNA^fMet (E. coli (strain MRE600)). Kind of assay: FRET or BRET. For orientation: BRET reads energy transfer from a luciferase to a nearby fluorophore.
In assay [2] the target is 30S IC_(−1/3): canonical 30S initiation complex lacking IF1 and IF3 (E. coli (strain MRE600)). Kind of assay: FRET or BRET.

By koff is commonly meant a measure of how fast the partners let go of each other. What is called kon is a measure of how fast the partners come together. Usually Kd stands for a measure of binding affinity in units of concentration. Read a high Kd as weaker binding.

In assay [1], “IF2(Cy5): Cy5-labeled E. coli initiation factor 2, γ-isoform, G810C (natural protein)” registered a koff of 1.3 s⁻¹ and a kon of 19000 M⁻¹ s⁻¹. In assay [2], this substance had a Kd of 50 nM and a kon of 1.3e+07 M⁻¹ s⁻¹.
